In patent US20080090770A1, “Modulation of Muc1 Mediated Signal Transduction” (priority 2003, published 2008):

Target: GST-RIM2 (KIAA0751) PDZ domain 1 (human)
Assay: modified ELISA, plated GST-RIM2 PDZ domain, biotinylated peptide 0.001-10 µM, curve fit; Relative EC50

B1: … (SEQ ID NO: 170) (peptide)
peptide: YGRKKRRQRRRARGRRETWV
modifications: not checked
Binder B1 has an EC50 of less than 10 nM.
